Results as given in patent US9821037B1, “Compounds and method of use as anti-infection compounds and therapeutic agents to regulate cholesterol metabolism” (University of Kentucky Research Foundation, priority 2013, dated 2017).

Columns and labels:
BY4741 yeast = assay: Saccharomyces cerevisiae growth inhibition assay (galactose-inducible over-expression of C-terminus constructs); format: cell-based; conditions: 4 days, 28° C.; for yeast growth with gene expression induced: BY4741, galactose as carbon source
Description: Constructs were created in which the C-terminal 92 AA of YSS, the C-terminal 64 AA of YSS, the C-terminal 66 AA of ASS, the C-terminal 92 AA of YSS in which the 26 AA domain is replaced by the corresponding of ASS or BSS, and the C-terminus of either ASS or BSS in which the 26 AA domain is replaced by the corresponding of YSS were cloned into the pESC-Ura (Gal1 and Gal10 promoters) vector. Constructs were transformed into BY4741 yeast and positive transformants were grown in 2 mL of Yeast-Synthetic Drop-out medium for 4 days. Serial dilutions (Corresponding to O.D.600=0.5, 0.1, 0.02, and 0.004) were plated on selection media containing either glucose or galactose as the carbon source. Pictures were taken after 4 days growth at 28° C.
To test this possibility, a gene coding for the 92 carboxy terminal residues of the yeast squalene synthase was inserted into a galactose inducible expression vector and the recombinant vector introduced into a wild type yeast (BY4741) (FIG. 7). When grown on glucose, expression of the 92 carboxy-terminal squalene synthase gene was suppressed and the transformed yeast grew normally. […] If a plant complementary carboxy-terminal gene was substituted for the yeast, no adverse effects were noted. When the 26 amino acid linker domain was deleted from the yeast gene construct, growth also was not impaired.
Constructs to be tested in S. cerevisiae were created using the pESC-Leu vector (Agilent) which harbors the Gal1/Gal10 divergent promoter to allow for galactose induction of gene expression. Primers used to create these constructs are listed in Table 4 (restriction sites, if any, in bold). YSS-92 was created by PCR amplifying a portion of the YSS gene corresponding to the 92 C-terminal amino acids using the primer sets, YSS-92 EcoRI For and YSS NotI Rev, and YSS-92 BamHI For and YSS HindIII Rev, and cloning into pESC-Leu with the corresponding restriction enzyme sites. ASS-66 and YSS-64 were created in the same manner. ASS-YSS and YSS-ASS were created in a similar manner using YSS-ASS-YSS or ASS-YSS-ASS as the templates for PCR, respectively. […]

[1] = system: erg9 knockout yeast line CALI7-1; assay: erg9 complementation assay (restoration of ergosterol prototrophy); format: cell-based, S. cerevisiae; conditions: construct expressed in CALI7-1; plates lacking ergosterol, 28° C., 72 h
Source text: Various squalene synthases were cloned into the yeast expression vector, Yep352-ADH1, including those from S. cerevisiae (YSS), B. braunii (BSS), N. benthamiana (TSS), A. thaliana (ASS), and R. norvegicus (RSS), as well as a C-terminal truncated form of YSS in which 24 amino acids comprising the ER membrane-spanning region were eliminated (YSStr). These constructs were transformed into the yeast line CALI7-1, which has been selected for high level FPP biosynthesis (10) and has an erg9 knockout mutation. It is unable to synthesize sterols de novo and is dependent on exogenous ergosterol for growth. […] To evaluate the encoded enzymes for catalytic activity, extracts prepared from the CALI7-1 yeast lines were assayed for squalene synthase enzyme activity. Constructs were also expressed in TN-7 yeast line and cultures were grown in liquid media with ergosterol and subsequently analyzed for squalene accumulation. Squalene levels were determined in TN-7 because in this yeast line, there is no possibility of squalene feeding into the ergosterol biosynthetic pathway. This allows for accurate comparisons of squalene production by the various SS enzymes.
The Cali7-1 yeast line, which has an erg9 deletion so that it cannot synthesize sterols de novo and requires exogenous ergosterol for growth, was used for these purposes (10). […]

Row | Molecule | yeast growth with gene expression induced (BY4741 yeast) | yeast growth with gene expression suppressed (BY4741 yeast; BY4741, glucose as carbon source) | ability to complement the erg9 deletion (growth without exogenous ergosterol) [1]
1 | KSKLAVQDPNFLKLNIQISKIEQFME (listed as Saccharomyces cerevisiae) [26 amino acid stretch of YSS, 26 amino acid linker-domain of squalene synthase from S. cerevisiae] | can inhibit the growth of yeast | – | –
2 | YSS-92: the 92 C-terminal amino acids of YSS (protein, UniProt P29704 353-444, looked up, fragment) KSKLAVQDPNFLKLNIQISKIEQFMEEMYQDKLPPNVKPNETPIFLKVKERSRYDDELVPTQQEEEYKFNMVLSIILSVLLGFYYIYTLHRA | growth was severely arrested | grew normally | –
3 | YSS: squalene synthase from S. cerevisiae (protein, UniProt P29704 1-444, looked up, full-length, squalene synthase from S. cerevisiae) MGKLLQLALHPVEMKAALKLKFCRTPLFSIYDQSTSPYLLHCFELLNLTSRSFAAVIRELHPELRNCVTLFYLILRALDTIEDDMSIEHDLKIDLLRHFHEKLLLTKWSFDGNAPDVKDRAVLTDFESILIEFHKLKPEYQEVIKEITEKMGNGMADYILDENYNLNGLQTVHDYDVYCHYVAGLVGDGLTRLIVIAKFANESLYSNEQLYESMGLFLQKTNIIRDYNEDLVDGRSFWPKEIWSQYAPQLKDFMKPENEQLGLDCINHLVLNALSHVIDVLTYLAGIHEQSTFQFCAIPQVMAIATLALVFNNREVLHGNVKIRKGTTCYLILKSRTLRGCVEIFDYYLRDIKSKLAVQDPNFLKLNIQISKIEQFMEEMYQDKLPPNVKPNETPIFLKVKERSRYDDELVPTQQEEEYKFNMVLSIILSVLLGFYYIYTLHRA | – | – | could restore ergosterol prototrophy
